Assay results reported in patent US20030180892A1.

Target: IL-17-like receptor (on the BIAcore surface)
Test: BIAcore (SPR), negative control conditioned media

response (RU): 20 RU
Substance: pC4 control conditioned media
